Assay results reported in PMC11624264, “Phosphorylation of P-stalk proteins defines the ribosomal state for interaction with auxiliary protein factors” (EMBO Reports, 2024).
Where “and” joins values, the source holds several entries; their conditions need not be identical. Identical values can stand only once.

Experiments:
[1] = target: P-stalk of 80S ribosomes from the SDPM yeast mutant strain (S to A mutations within all P-stalk proteins at the C-termini) (S. cerevisiae) (UniProt P05317)
[2] = target: native (phosphorylated) yeast pentameric P-stalk complex ΔuL10(199-312)-(P1A–P2B)-(P1B–P2A) (S. cerevisiae) (UniProt P05317)
[3] = target: native (phosphorylated) yeast pentameric P-stalk complex ΔuL10(199-312)-(P1A–P2B)-(P1B–P2A) (S. cerevisiae), P05317; assay: MST; P-stalk complex labelled with RED-tris-NTA on its His tag, 5 nM, titrated with unlabelled eIF5B (dilution series from 1.48 μM); PBS with 0.05% Tween-20 and 1 mg/ml BSA; 25 °C; Monolith NT.115 Pico
[4] = target: P-stalk of 80S ribosomes from the SDPM yeast mutant strain (S to A mutations within all P-stalk proteins at the C-termini) (S. cerevisiae), P05317
eIF5B = target: T1, eIF5B (UniProt P39730 1-1002); assay: MST; P-stalk complex labelled with RED-tris-NTA on its His tag, 5 nM, titrated with unlabelled eIF5B (dilution series from 1.48 μM); PBS with 0.05% Tween-20 and 1 mg/ml BSA; 25 °C; Monolith NT.115 Pico; conditions: both partners purified
T1 construct: translation initiation factor eIF5B; also called trGTPase eIF5B; source: purified as previously described (Blanchet and Ranjan, 2022)
T1 sequence (looked up): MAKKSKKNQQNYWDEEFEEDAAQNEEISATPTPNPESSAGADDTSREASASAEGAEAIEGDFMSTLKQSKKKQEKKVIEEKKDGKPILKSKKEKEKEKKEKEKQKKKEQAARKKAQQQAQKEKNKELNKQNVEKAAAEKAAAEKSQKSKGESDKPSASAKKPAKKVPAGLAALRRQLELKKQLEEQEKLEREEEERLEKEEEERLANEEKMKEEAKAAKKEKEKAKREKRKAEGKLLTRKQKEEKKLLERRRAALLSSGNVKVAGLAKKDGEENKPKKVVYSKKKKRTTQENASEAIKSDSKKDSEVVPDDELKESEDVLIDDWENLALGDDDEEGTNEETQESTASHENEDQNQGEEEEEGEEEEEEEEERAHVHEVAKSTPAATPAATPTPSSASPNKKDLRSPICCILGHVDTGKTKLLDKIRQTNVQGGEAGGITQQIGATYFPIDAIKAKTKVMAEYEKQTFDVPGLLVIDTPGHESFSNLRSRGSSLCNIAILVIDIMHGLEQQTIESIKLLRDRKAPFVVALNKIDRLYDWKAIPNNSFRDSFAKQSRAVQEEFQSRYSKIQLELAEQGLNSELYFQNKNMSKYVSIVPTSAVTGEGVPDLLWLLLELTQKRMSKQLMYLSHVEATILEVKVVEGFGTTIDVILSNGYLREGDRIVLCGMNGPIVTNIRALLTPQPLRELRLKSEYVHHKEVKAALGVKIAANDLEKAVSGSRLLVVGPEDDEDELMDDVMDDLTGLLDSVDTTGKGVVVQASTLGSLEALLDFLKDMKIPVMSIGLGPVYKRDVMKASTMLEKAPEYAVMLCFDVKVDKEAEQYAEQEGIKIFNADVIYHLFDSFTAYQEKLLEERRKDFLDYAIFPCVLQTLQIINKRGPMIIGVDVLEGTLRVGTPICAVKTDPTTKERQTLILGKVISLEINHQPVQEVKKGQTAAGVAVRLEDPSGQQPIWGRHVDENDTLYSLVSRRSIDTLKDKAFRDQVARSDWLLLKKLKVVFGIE

## eEF1A (from UniProt P02994 1-458) (enzyme)
[1]
  GTPase activity of eEF1A (0.05 µM, 10 µM GTP) with 0.2 µM 80S ribosomes from the SDPM strain (S to A, dephospho-mimicking P-stalk on the ribosome): average GTPase rate: 0.019 min⁻¹
[2]
  GTPase activity of eEF1A (0.05 µM, 10 µM GTP) with 0.2 µM 80S ribosomes from the WT strain (phosphorylated P-stalk on the ribosome): average GTPase rate: 0.008 min⁻¹

## eEF2 (from UniProt P32324 1-842) (enzyme)
[1]
  GTPase activity of eEF2 (0.05 µM, 10 µM GTP) with 0.2 µM 80S ribosomes from the SDPM strain (S to A, dephospho-mimicking P-stalk on the ribosome): average GTPase rate: 0.044 min⁻¹
[2]
  GTPase activity of eEF2 (0.05 µM, 10 µM GTP) with 0.2 µM 80S ribosomes from the WT strain (phosphorylated P-stalk on the ribosome): average GTPase rate: 0.019 min⁻¹

B1: eIF5B, P39730 1-1002 (enzyme)
chain: MAKKSKKNQQNYWDEEFEEDAAQNEEISATPTPNPESSAGADDTSREASASAEGAEAIEGDFMSTLKQSKKKQEKKVIEEKKDGKPILKSKKEKEKEKKEKEKQKKKEQAARKKAQQQAQKEKNKELNKQNVEKAAAEKAAAEKSQKSKGESDKPSASAKKPAKKVPAGLAALRRQLELKKQLEEQEKLEREEEERLEKEEEERLANEEKMKEEAKAAKKEKEKAKREKRKAEGKLLTRKQKEEKKLLERRRAALLSSGNVKVAGLAKKDGEENKPKKVVYSKKKKRTTQENASEAIKSDSKKDSEVVPDDELKESEDVLIDDWENLALGDDDEEGTNEETQESTASHENEDQNQGEEEEEGEEEEEEEEERAHVHEVAKSTPAATPAATPTPSSASPNKKDLRSPICCILGHVDTGKTKLLDKIRQTNVQGGEAGGITQQIGATYFPIDAIKAKTKVMAEYEKQTFDVPGLLVIDTPGHESFSNLRSRGSSLCNIAILVIDIMHGLEQQTIESIKLLRDRKAPFVVALNKIDRLYDWKAIPNNSFRDSFAKQSRAVQEEFQSRYSKIQLELAEQGLNSELYFQNKNMSKYVSIVPTSAVTGEGVPDLLWLLLELTQKRMSKQLMYLSHVEATILEVKVVEGFGTTIDVILSNGYLREGDRIVLCGMNGPIVTNIRALLTPQPLRELRLKSEYVHHKEVKAALGVKIAANDLEKAVSGSRLLVVGPEDDEDELMDDVMDDLTGLLDSVDTTGKGVVVQASTLGSLEALLDFLKDMKIPVMSIGLGPVYKRDVMKASTMLEKAPEYAVMLCFDVKVDKEAEQYAEQEGIKIFNADVIYHLFDSFTAYQEKLLEERRKDFLDYAIFPCVLQTLQIINKRGPMIIGVDVLEGTLRVGTPICAVKTDPTTKERQTLILGKVISLEINHQPVQEVKKGQTAAGVAVRLEDPSGQQPIWGRHVDENDTLYSLVSRRSIDTLKDKAFRDQVARSDWLLLKKLKVVFGIE
modifications: here or on the partner: phosphoserine in the C-terminal domain, mixed phosphorylated and dephosphorylated fractions (position not given) | phosphoserine in the C-terminal domain, mostly phosphorylated (position not given) | phosphoserine in the C-terminal domain, mostly phosphorylated (position not given) | phosphoserine in the C-terminal domain, mostly phosphorylated (position not given) …
[3]
  Kd: 11.2 µM
[4]
  GTPase activity of eIF5B (0.05 µM, 10 µM GTP) with 0.2 µM 80S ribosomes from the SDPM strain (S to A, dephospho-mimicking P-stalk on the ribosome): average GTPase rate: 0.02 min⁻¹

B2: AP-treated (dephosphorylated) yeast pentameric P-stalk complex ΔuL10(199-312)-(P1A–P2B)-(P1B–P2A) (complex, S. cerevisiae)
chain 1: SSILDITDEELVSHFVSAVSTIASISLAIGYPTLPSVGHTLINNYKDLLAVAIAASYHYPEIEDLVDRIENPEKYAAAAPAATSAASGDAAPAEEAAAEEEEESDDDMGFGLFD
chain 2: MSTESALSYAALILADSEIEISSEKLLTLTNAANVPVENIWADIFAKALDGQNLKDLLVNFSAGAAAPAGVAGGVAGGEAGEAEAEKEEEEAKEESDDDMGFGLFD
chain 3: MKYLAAYLLLVQGGNAAPSAADIKAVVESVGAEVDEARINELLSSLEGKGSLEEIIAEGQKKFATVPTGGASSAAAGAAGAAAGGDAAEEEKEEEAKEESDDDMGFGLFD
chain 4: MSDSIISFAAFILADAGLEITSDNLLTITKAAGANVDNVWADVYAKALEGKDLKEILSGFHNAGPVAGAGAASGAAAAGGDAAAEEEKEEEAAEESDDDMGFGLFD
chain 5: MKYLAAYLLLNAAGNTPDATKIKAILESVGIEIEDEKVSSVLSALEGKSVDELITEGNEKLAAVPAAGPASAGGAAAASGDAAAEEEKEEEAAEESDDDMGFGLFD
notes: ribosomal P-stalk protein P1A, S. cerevisiae; ribosomal P-stalk protein P2B, S. cerevisiae; ribosomal P-stalk protein P1B, S. cerevisiae; ribosomal P-stalk protein P2A, S. cerevisiae; For MST the complex was labelled with RED-tris-NTA on the His tag; also called dephospho P-stalk; dephospho-P-stalk complex; copies: + + + +
eIF5B
  Kd: 4.6 µM and 4.5 µM
